Patent US20160194394A1 (GOVERNING COUNCIL OF THE UNIVERSITY OF TORONTO, published 2016)
Residue numbers refer to the chain shown, from its start.

B1: B10 (Fab)
light: DIQMTQSPSSLSASVGDRVTITCRASQSVSSAVAWYQQKPGKAPKLLIYSASSLYSGVPSRFSGSRSGTDFTLTISSLQPEDFATYYCQQGSVWLFTFGQGTKVEIKRTVAAPSVFIFPPSDSQLKSGTASVVCLLNNFYPREAKVQWKVDNALQSGNSQESVTEQDSKDSTYSLSSTLTLSKADYEKHKVYACEVTHQGLSSPVTKSFNRGECGGS
heavy: EVQLVESGGGLVQPGGSLRLSCAASGFNISSSSMHWVRQAPGKGLEWVASISSSSSYTYYADSVKGRFTISADTSKNTAYLQMNSLRAEDTAVYYCARYGSHWSPSYSGWYYYSYALDYWGQGTLVTVSSASTKGPSVFPLAPSSKSTSGGTAALGCLVKDYFPEPVTVSWNSGALTSGVHTFPAVLQSSGLYSLSSVVTVPSSSLGTQTYICNVNHKPSNTKVDKKVEPKSC
notes: selection round 2; not the round 3 clone B10 (f30); also called Fzd7-R2-B10
B2: E5 (Fab)
light: B1 light with G91A, V93W, W94Y, L95P, F96I
heavy: EVQLVESGGGLVQPGGSLRLSCAASGFNIYSSSMHWVRQAPGKGLEWVASIYSSYGYTSYADSVKGRFTISADTSKNTAYLQMNSLRAEDTAVYYCARPGYWGYYWGAYGMDYWGQGTLVTVSSASTKGPSVFPLAPSSKSTSGGTAALGCLVKDYFPEPVTVSWNSGALTSGVHTFPAVLQSSGLYSLSSVVTVPSSSLGTQTYICNVNHKPSNTKVDKKVEPKSC
notes: selection round 2; also called Fzd7-R2-E5
B3: G4 (Fab)
light: B1 light with G91A, S92Y, V93A, W94Y, F96I
heavy: EVQLVESGGGLVQPGGSLRLSCAASGFNISYSSMHWVRQAPGKGLEWVASISSSYGYTYYADSVKGRFTISADTSKNTAYLQMNSLRAEDTAVYYCARSGGHFYYWYVAAAMDYWGQGTLVTVSSASTKGPSVFPLAPSSKSTSGGTAALGCLVKDYFPEPVTVSWNSGALTSGVHTFPAVLQSSGLYSLSSVVTVPSSSLGTQTYICNVNHKPSNTKVDKKVEPKSC
notes: selection round 2; same four CDRs as Fzd7-R2-B2 (f22); also called Fzd7-R2-G4
B4: F12 (Fab)
light: DIQMTQSPSSLSASVGDRVTITCRASQSVSSAVAWYQQKPGKAPKLLIYSASSLYSGVPSRFSGSRSGTDFTLTISSLQPEDFATYYCQQAYAPFTFGQGTKVEIKRTVAAPSVFIFPPSDSQLKSGTASVVCLLNNFYPREAKVQWKVDNALQSGNSQESVTEQDSKDSTYSLSSTLTLSKADYEKHKVYACEVTHQGLSSPVTKSFNRGECGGS
heavy: EVQLVESGGGLVQPGGSLRLSCAASGFNISYSYMHWVRQAPGKGLEWVASIYSSYSYTSYADSVKGRFTISADTSKNTAYLQMNSLRAEDTAVYYCARSSAWFGHAGFGGAMDYWGQGTLVTVSSASTKGPSVFPLAPSSKSTSGGTAALGCLVKDYFPEPVTVSWNSGALTSGVHTFPAVLQSSGLYSLSSVVTVPSSSLGTQTYICNVNHKPSNTKVDKKVEPKSC
notes: selection round 2; also called Fzd7-R2-F12
B5: C10 (Fab)
light: DIQMTQSPSSLSASVGDRVTITCRASQSVSSAVAWYQQKPGKAPKLLIYSASSLYSGVPSRFSGSRSGTDFTLTISSLQPEDFATYYCQQSAWWASLFTFGQGTKVEIKRTVAAPSVFIFPPSDSQLKSGTASVVCLLNNFYPREAKVQWKVDNALQSGNSQESVTEQDSKDSTYSLSSTLTLSKADYEKHKVYACEVTHQGLSSPVTKSFNRGECGGS
heavy: EVQLVESGGGLVQPGGSLRLSCAASGFNISSYSIHWVRQAPGKGLEWVASIYPYSSYTYYADSVKGRFTISADTSKNTAYLQMNSLRAEDTAVYYCARYSGFAMDYWGQGTLVTVSSASTKGPSVFPLAPSSKSTSGGTAALGCLVKDYFPEPVTVSWNSGALTSGVHTFPAVLQSSGLYSLSSVVTVPSSSLGTQTYICNVNHKPSNTKVDKKVEPKSC
notes: selection round 2; also called Fzd7-R2-C10
B6: F9 (Fab)
light: B5 light with S91W, A92Y, W93Y, W94G, A95W, S96H, F98I
heavy: B5 heavy with S31Y, Y32S, Y54S, S55Y, S56G, S100G, G101Y, A103G
notes: selection round 2; also called Fzd7-R2-F9
B7: E11 (Fab)
light: B5 light with S91Y, A92S, W93Y, W94G, A95Y, S96A
heavy: EVQLVESGGGLVQPGGSLRLSCAASGFNLSSYYMHWVRQAPGKGLEWVASIYPYYSYTYYADSVKGRFTISADTSKNTAYLQMNSLRAEDTAVYYCARYWSGFDYWGQGTLVTVSSASTKGPSVFPLAPSSKSTSGGTAALGCLVKDYFPEPVTVSWNSGALTSGVHTFPAVLQSSGLYSLSSVVTVPSSSLGTQTYICNVNHKPSNTKVDKKVEPKSC
notes: selection round 2; also called Fzd7-R2-E11
B8: E9 (Fab)
light: DIQMTQSPSSLSASVGDRVTITCRASQSVSSAVAWYQQKPGKAPKLLIYSASSLYSGVPSRFSGSRSGTDFTLTISSLQPEDFATYYCQQSYVGGPFTFGQGTKVEIKRTVAAPSVFIFPPSDSQLKSGTASVVCLLNNFYPREAKVQWKVDNALQSGNSQESVTEQDSKDSTYSLSSTLTLSKADYEKHKVYACEVTHQGLSSPVTKSFNRGECGGS
heavy: EVQLVESGGGLVQPGGSLRLSCAASGFNISYYSMHWVRQAPGKGLEWVASISSSYSSTYYADSVKGRFTISADTSKNTAYLQMNSLRAEDTAVYYCARGYWYVYVGWGAYYGPVGMDYWGQGTLVTVSSASTKGPSVFPLAPSSKSTSGGTAALGCLVKDYFPEPVTVSWNSGALTSGVHTFPAVLQSSGLYSLSSVVTVPSSSLGTQTYICNVNHKPSNTKVDKKVEPKSC
notes: selection round 2; not the round 3 clone E9 (f29); also called Fzd7-R2-E9
B9: G1 (Fab)
light: B8 light with S91W, Y92G, V93Y, G95A, P96L, F97I
heavy: EVQLVESGGGLVQPGGSLRLSCAASGFNISYSSIHWVRQAPGKGLEWVASIYPSPGYTSYADSVKGRFTISADTSKNTAYLQMNSLRAEDTAVYYCARHGWYGLDYWGQGTLVTVSSASTKGPSVFPLAPSSKSTSGGTAALGCLVKDYFPEPVTVSWNSGALTSGVHTFPAVLQSSGLYSLSSVVTVPSSSLGTQTYICNVNHKPSNTKVDKKVEPKSC
notes: selection round 2; same four CDRs as Fzd7-R2-G12 (f18); also called Fzd7-R2-G1
B10: D7 (Fab)
light: B8 light with G94Y, G95Y, P96L, F97I
heavy: EVQLVESGGGLVQPGGSLRLSCAASGFNISYYSMHWVRQAPGKGLEWVAYIYPYSSYTYYADSVKGRFTISADTSKNTAYLQMNSLRAEDTAVYYCARYHGFYGMDYWGQGTLVTVSSASTKGPSVFPLAPSSKSTSGGTAALGCLVKDYFPEPVTVSWNSGALTSGVHTFPAVLQSSGLYSLSSVVTVPSSSLGTQTYICNVNHKPSNTKVDKKVEPKSC
notes: selection round 2; also called Fzd7-R2-D7

target: T1, FZD7 receptor expressed on cells (full-length) (UniProt O75084 33-574, limits assumed); test: flow cytometry, 200 nM Fab, MDA MB 231
T1 construct: whole, on cells; MDA MB 231 cells may carry other Frizzled receptors too; also called full-length FZD7 receptor; endogenous receptor on MDA MB 231 cells
Protocol: (§1) FIG. 3 is a table depicting the binding of the purified Fabs to cells expressing FZD7 (flow cytometry). Small scale Fabs were assayed for binding to full-length FZD7 receptor to an over-expression line in MDA MB 231 cells. In parallel, Fabs were assayed for binding to endogenous receptor expressed on the MDA MB 231 cells. Cells were harvested using an EDTA solution, blocked in 2% FBS/PBS (stain buffer), and stained with 200 nM Fab for 30 min on ice. Cells were washed two times with stain buffer and incubated with anti-F(ab′)₂-APC secondary antibody (Jackson Immuno) at 1:1000 for 15 minutes on ice. All antibodies were diluted in stain buffer. Cells were washed three times with stain buffer and then fixed with 1% paraformaldehye for analysis by flow cytometry. […] The percent of the cell population within the positive gates is indicated.

Row | Binder | % population within the positive gate [%]
1 | B1 | 35
2 | B2 | 6.3
3 | B3 | 5.1
4 | B4 | 1.4
5 | B5 | 0.9
6 | B6 | 50.3
7 | B7 | 99.2
8 | B8 | 99.4
9 | B9 | 28.6
10 | B10 | 1.7

target: T1, FZD7 receptor expressed on cells …; test: flow cytometry, 200 nM Fab, FZD7 over-expression line (MDA MB 231)
Protocol: as §1

Row | Binder | % population within the positive gate [%]
11 | B1 | 88.4
12 | B2 | 86.2
13 | B3 | 85.4
14 | B4 | 59.9
15 | B5 | 50.5
16 | B6 | 88.3
17 | B7 | 94.2
18 | B8 | 90.7
19 | B9 | 83.4
20 | B10 | 75.7

target: T2, Fc control protein; test: ELISA, 1ug/ml (20nM) Fab
T2 construct: also called Fc protein; control Fc protein
Protocol: (§2) FIG. 2B is a table depicting the binding of purified Fabs to purified FZD7-Fc measured by ELISA. Fabs purified from 25 ml bacterial cultures were assayed for binding to FZD7-Fc fusion protein (R&D systems) and Fc protein. ELISA plates (384 well) were coated with 2 ug/ml of protein in PBS overnight at four degrees. Wells were blocked with 0.5% BSA/PBS for 1 hour at room temperature, washed three times with 0.05% Tween20/PBS (wash buffer), and then primary dilutions of Fabs in 0.5% BSA/0.05% Tween20/PBS (dilution buffer) were added at indicated concentrations. Fabs were incubated for 1 hour at room temperature, wells were washed six times, and anti-FLAG-HRP (Sigma) was added at 1:5000 in dilution buffer. Secondary antibody was incubated for 45 minutes at room temperature, and wells were washed six times and developed with TMB substrate with an acid stop. The absorbance at 450 nm was read. n.t.=not tested.

Row | Binder | OD 450
21 | B1 | 0.06
22 | B2 | 0.07
23 | B3 | 0.05
24 | B4 | 0.08
25 | B5 | 0.07
26 | B6 | 0.06
27 | B7 | 0.05
28 | B8 | 0.05
29 | B9 | 0.05
30 | B10 | 0.07

target: T3, recombinant Frizzled receptor 7 (FZD7) cysteine-rich domain (CRD) fused to the Fc region of human IgG (human, UniProt O75084 33-185); test: ELISA, 1ug/ml (20nM) Fab
Protocol: as §2

Row | Binder | OD 450
31 | B1 | 2.82
32 | B2 | 3.17
33 | B3 | 3.15
34 | B4 | 1.05
35 | B5 | 0.37
36 | B6 | 3.11
37 | B7 | 3.24
38 | B8 | 3.15
39 | B9 | 3.17
40 | B10 | 3.22

target: T2, Fc control protein; test: ELISA, 10ug/ml (200nM) Fab
Protocol: as §2

Row | Binder | OD 450
41 | B1 | 0.06
42 | B2 | 0.06
43 | B3 | 0.07
44 | B4 | 0.06
45 | B5 | 0.06
46 | B6 | 0.06
47 | B7 | 0.06
48 | B8 | 0.07
49 | B9 | 0.05
50 | B10 | 0.07

target: T3, recombinant Frizzled receptor 7 (FZD7) …; test: ELISA, 10ug/ml (200nM) Fab
Protocol: as §2

Row | Binder | OD 450
51 | B1 | 2.99
52 | B2 | 3.17
53 | B3 | 3.17
54 | B4 | 3.11
55 | B5 | 2.05
56 | B6 | 3.16
57 | B7 | 3.22
58 | B8 | 3.22
59 | B9 | 3.18
60 | B10 | 3.18
